Measured values reported in the supplement of paper PMC9170038.

Columns and labels:
MS2 coat protein [1] = experiment: apparent KD of MS2 coat protein, switch ON state; designed switch direction (-1 OFF switch, 1 ON switch): -1; higher = weaker reporter binding; conditions: FMN input: 0 or 200 uM; Eterna round: R93 (includes R88 designs)
Procedure, shortened: (§1)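 Illumina sequencing clusters served as templates for on-chip transcription of the designed RNA switches. SNAP-549-labelled MS2 coat protein was then titrated in twofold steps from 0.7 or 1.5 nM to 3 µM, allowing 0.8–1.5 h per step at first and 10–20 min per step later. The buffer held 100 mM Tris-HCl pH 7.5, 80 mM KCl and 4 mM MgCl2, without or with constant ligand. Apparent KD is the median per design of normalised cluster binding-curve fits.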

MS2 coat protein [2] = experiment: apparent KD of MS2 coat protein, switch OFF state (with FMN for OFF switches, without FMN for ON switches); designed switch direction (-1 OFF switch, 1 ON switch): -1; higher = weaker reporter binding; conditions: FMN input: 0 or 200 uM; Eterna round: R93 (includes R88 designs)
Procedure, shortened: as §1

In the case of “ACAGUUACAGGAUAUACAUGGGUGAAAAAAGUAUAUCCACUACAUGAGGAUCACCCAUGUAGAAGGGUAACUGA [Ex2 Design 174: Random 3]”, the “apparent KD of MS2 coat protein” value (MS2 coat protein [1]) is reported as 18.6 nM and the “apparent KD of MS2 coat protein” value (MS2 coat protein [2]) is reported as 12.3 nM.
In the case of “AGCAAACAUGAGGAUCACCCAUGUCAGGAUAUGAACGAAAAUAAAUAAAAAUAAAAGUUCAGAAGGGACGAGCA [66%, Wbt, 25]”, the “apparent KD of MS2 coat protein” value (MS2 coat protein [1]) is reported as 43.2 nM and the “apparent KD of MS2 coat protein” value (MS2 coat protein [2]) is reported as 50.1 nM.
For “AUAGGCCUAGGAUAUACAUGAGGAUCACCCAUGUAAACAGAUAGAUCAAGGUAAACGAGUAGAAGGAGGAAUAA [JR_Exc003_Sub209]”, the “apparent KD of MS2 coat protein” value (MS2 coat protein [1]) was 22 nM and the “apparent KD of MS2 coat protein” value (MS2 coat protein [2]) was 17.8 nM.
For “AAGACUACAGGAUAUACAUGAGGAUCACCCAUGUAACUGACAAGUAGAGGACGGAGAAGUAGAAGGGUAGUCAA [Ruby 35]”, the “apparent KD of MS2 coat protein” value (MS2 coat protein [1]) was 13.6 nM and the “apparent KD of MS2 coat protein” value (MS2 coat protein [2]) was 26.7 nM.
“AAAUCAGUAGGAUAUACGAUUUGGUACUAGACCGAGGAACCACAUGAGGAUCACCCAUGUAGAAGGACUAGAUA [EX2 Malc#21]” was tested, and the “apparent KD of MS2 coat protein” value (MS2 coat protein [1]) was 17.2 nM and the “apparent KD of MS2 coat protein” value (MS2 coat protein [2]) was 12.9 nM.
“AAAAAUGGAGGAUAUACAUGAGGAUCACCCAUGUGUAACUAUACUAAGCACAAACCACGUAGAAGGCCAAAAAA [Gilly Gone Silly 11 - Jieux - Exclusion 3]” was tested, and the “apparent KD of MS2 coat protein” value (MS2 coat protein [1]) was 51.7 nM and the “apparent KD of MS2 coat protein” value (MS2 coat protein [2]) was 78.3 nM.
In the case of “AUAAUGAGAGGAUAUACAUGAGGAUCACCCAUGUAAUUAACACGGCGAGCACCAAUACGUAGAAGGCUCAUUUA [JR_Exc003+Sub602]”, the “apparent KD of MS2 coat protein” value (MS2 coat protein [1]) is reported as 22.4 nM and the “apparent KD of MS2 coat protein” value (MS2 coat protein [2]) is reported as 49.9 nM.
With “GGUUGUGAAGGAUAUACAUGAGGAUCACCCAUGUGAGAGAAAAAAGUGAGAAAGAAAAGUAGAAGGUCAUGACG [salish99-ex3-64]” the “apparent KD of MS2 coat protein” value (MS2 coat protein [1]) was 30.8 nM and the “apparent KD of MS2 coat protein” value (MS2 coat protein [2]) was 76.2 nM.
For “AAUGAUUUAGGAUAUACAUGAGGAUCACCCAUGUUCAAAUCGUGGGUCAGGUGAGAAGGUAGAAGGAAAUCACU [Soberior]”, the “apparent KD of MS2 coat protein” value (MS2 coat protein [1]) was 113 nM and the “apparent KD of MS2 coat protein” value (MS2 coat protein [2]) was 185 nM.
“AGCUAGUCAGGAUAUACGAACAUGUCAAAAGACGUGAAUAAACAUGAGGAUCACCCAUGUAGAAGGGACUAGCA [Mat - Exclusion 2 - JL-Eli mod - D53]” was tested, and the “apparent KD of MS2 coat protein” value (MS2 coat protein [1]) was 18.3 nM and the “apparent KD of MS2 coat protein” value (MS2 coat protein [2]) was 14.8 nM.
In the case of “AAGAAAGCAGGAUAUACAUGAGGAUCACCCAUGUAAAAGAAAGAAAGGGAAAAGAAAAGUAGAAGGGCUAAGAA [Usermaatre-setepenre Pami]”, the “apparent KD of MS2 coat protein” value (MS2 coat protein [1]) is reported as 23.6 nM and the “apparent KD of MS2 coat protein” value (MS2 coat protein [2]) is reported as 26.1 nM.
For “AUAAAGUAAGGAUAUGCGAAUAAAUAAGUAGACGAAUGAAAGCAGAAGGUACAUGAGGAUCACCCAUGUAAGAA [Ex 4 Tesla 2]”, the “apparent KD of MS2 coat protein” value (MS2 coat protein [1]) was 30.3 nM and the “apparent KD of MS2 coat protein” value (MS2 coat protein [2]) was 19 nM.
“AGGAAACAUGAGGAUCACCCAUGUCAGGAUAUAGAAAAGAAAAGAAAAGAAAGAAGAACUAGAAGGGACAAGAA [Scorpion I]” was tested, and the “apparent KD of MS2 coat protein” value (MS2 coat protein [1]) was 27.7 nM and the “apparent KD of MS2 coat protein” value (MS2 coat protein [2]) was 26.3 nM.
In the case of “AUCUAGUCAGGAUAUCGAUGAAAUGAAGUGAAAGAAAAGAACGAGAAGGGACAUGAGGAUCACCCAUGUUAGAA [EteRNA is fun!]”, the “apparent KD of MS2 coat protein” value (MS2 coat protein [1]) is reported as 31.2 nM and the “apparent KD of MS2 coat protein” value (MS2 coat protein [2]) is reported as 18.8 nM.
For “AAACUGGUAGGAUAUGCUAGGGCGAUUAAUACGCCGAUAGUACAUGAGGAUCACCCAUGUAGAAGGGCCAGAAA [Mat - Exclusion 2 - JL mod - D65]”, the “apparent KD of MS2 coat protein” value (MS2 coat protein [1]) was 30.8 nM and the “apparent KD of MS2 coat protein” value (MS2 coat protein [2]) was 23.6 nM.
“AAAAAAGGAGGAUAUACGUACAUGUCGAAAGACGUGAAGGGACAUGAGGAUCACCCAUGUAGAAGGCCUAAAAA [Mat - Exclusion 2 - JL mod - D86]” was tested, and the “apparent KD of MS2 coat protein” value (MS2 coat protein [1]) was 34.8 nM and the “apparent KD of MS2 coat protein” value (MS2 coat protein [2]) was 107 nM.
For “AACAAACAUGAGGAUCACCCAUGUCAGGAUAUGCAAACAACAAACAACAAACAACAAAGCAGAAGGGACGACAA [63%, Olong, 3]”, the “apparent KD of MS2 coat protein” value (MS2 coat protein [1]) was 21.7 nM and the “apparent KD of MS2 coat protein” value (MS2 coat protein [2]) was 37.5 nM.
For “AGAAUACAUGAGGAUCACCCAUGUGAGGAUAUCAGAAGAAAAAGAAAAGAAAAGAAACUGAGAAGGCACAAAAG [EX 1 May 15]”, the “apparent KD of MS2 coat protein” value (MS2 coat protein [1]) was 35.7 nM and the “apparent KD of MS2 coat protein” value (MS2 coat protein [2]) was 66.1 nM.
In the case of “AAAACUAGAGGAUAUACGAACAUGUCAAAAGACGUGAAGGGACAUGAGGAUCACCCAUGUAGAAGGCUAGAAAA [JL Stem Breaker 11]”, the “apparent KD of MS2 coat protein” value (MS2 coat protein [1]) is reported as 55.6 nM and the “apparent KD of MS2 coat protein” value (MS2 coat protein [2]) is reported as 71.9 nM.
